According to patent publication US20230322953A1 (HARBOUR BIOMED SHANGHAI, published 2023):

Molecular target: T1, human CD3 (TCR/CD3 complex) on human T cells (human, UniProt P07766 23-207)
T1 construct: whole, on cells
Assay: flow cytometry (FACS) on human T cells, Experiment 1
Protocol: The binding ability of the antibody molecules to human or cynomolgus monkey T cells was tested by flow cytometry FACS. […] The T cell density was adjusted to 1×10⁶ cells/mL. […] The cells were incubated at 4° C. for 1 h away from light. Then, the cells in each well were rinsed twice with 100 μL of pre-cooled PBS, and centrifuged at 500 g at 4° C. for 5 min, and then the supernatant was discarded. […] The cells in each well were rinsed twice with 100 μL of pre-cooled PBS, and centrifuged at 500 g at 4° C. for 5 min, and then the supernatant was discarded. Finally, the cells in each well were resuspended in 200 μL of pre-cooled PBS. Fluorescence signal values were read using a BD FACS CANTOII flow cytometer or an ACEA NovoCyte flow cytometer, and the data were processed and analyzed using FlowJo v10 (FlowJo, LLC) software. The data were processed and analyzed by plotting using GraphPad Prism 8 software, and binding curves of the antibodies to target cells, EC₅₀ values and other parameters were obtained through four-parameter nonlinear fitting.

T1 sequence (P07766 23-207, one chain of several): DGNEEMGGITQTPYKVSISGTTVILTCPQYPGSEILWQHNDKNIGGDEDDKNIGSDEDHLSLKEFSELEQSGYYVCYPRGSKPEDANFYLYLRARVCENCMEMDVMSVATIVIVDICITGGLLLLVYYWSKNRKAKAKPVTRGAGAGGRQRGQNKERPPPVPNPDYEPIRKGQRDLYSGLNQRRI

Maximum MFI [MFI] | Binder
5160 | PR001987 (bispecific antibody, human IgG1, lambda, L234A L235A, Structure 11 (Fab-Fc-VH): CD3 Fab from PR000511, BCMA VH from PR000940; human IgG1 knob/hole, AAG; also called BCMA×CD3 bispecific antibody molecule of Fab-Fc-VH asymmetric structure) light: QAVVTQEPSLTVSPGGTVTLTCRSSTGAVTTSNYANWVQQKPGQAPRGLIGGTNKRAPWTPARFSGSLLGDKAALTLLGAQPEDEAEYFCALWYSNLWVFGGGTKLTVLGQPKAAPSVTLFPPSSEELQANKATLVCLISDFYPGAVTVAWKADSSPVKAGVETTTPSKQSNNKYAASSYLSLTPEQWKSHRSYSCQVTHEGSTVEKTVAPTECS heavy: EVQLLESGGGLVQPGGSLRLSCAASGFTFNTYAMNWVRQAPGKGLEWVSRIRSKYNNYATYYADSVKDRFTISRDDSKSTLYLQMNSLRAEDTAVYYCVRHGNFGNSYVSWFAYWGQGTLVTVSSASTKGPSVFPLAPSSKSTSGGTAALGCLVKDYFPEPVTVSWNSGALTSGVHTFPAVLQSSGLYSLSSVVTVPSSSLGTQTYICNVNHKPSNTKVDKKVEPKSCDKTHTCPPCPAPEAAGGPSVFLFPPKPKDTLMISRTPEVTCVVVDVSHEDPEVKFNWYVDGVEVHNAKTKPREEQYNSTYRVVSVLTVLHQDWLNGKEYKCKVSNKALGAPIEKTISKAKGQPREPQVYTLPPCREEMTKNQVSLWCLVKGFYPSDIAVEWESNGQPENNYKTTPPVLDSDGSFFLYSKLTVDKSRWQQGNVFSCSVMHEALHNHYTQKSLSLSPGK EVQLLESGGGLVQPGGSLRLSCAASGFTFSSYAMIWVRQAPGKGLEWVSGISESGGSTYYADSVKGRFTISRDNSKNTLYLQMNSLRAEDTAVYFCVKDLDDILTGYYKDYWGQGTLVTVSSASEPKSSDKTHTCPPCPAPEAAGGPSVFLFPPKPKDTLMISRTPEVTCVVVDVSHEDPEVKFNWYVDGVEVHNAKTKPREEQYNSTYRVVSVLTVLHQDWLNGKEYKCKVSNKALGAPIEKTISKAKGQPREPQVCTLPPSREEMTKNQVSLSCAVKGFYPSDIAVEWESNGQPENNYKTTPPVLDSDGSFFLVSKLTVDKSRWQQGNVFSCSVMHEALHNHYTQKSLSLSPGK
5800 | PR001988 (bispecific antibody, human IgG1, lambda, L234A L235A, Structure 11 (Fab-Fc-VH): CD3 Fab from PR000511, BCMA VH from PR000943; human IgG1 knob/hole, AAG) light: QAVVTQEPSLTVSPGGTVTLTCRSSTGAVTTSNYANWVQQKPGQAPRGLIGGTNKRAPWTPARFSGSLLGDKAALTLLGAQPEDEAEYFCALWYSNLWVFGGGTKLTVLGQPKAAPSVTLFPPSSEELQANKATLVCLISDFYPGAVTVAWKADSSPVKAGVETTTPSKQSNNKYAASSYLSLTPEQWKSHRSYSCQVTHEGSTVEKTVAPTECS heavy: EVQLLESGGGLVQPGGSLRLSCAASGFTFNTYAMNWVRQAPGKGLEWVSRIRSKYNNYATYYADSVKDRFTISRDDSKSTLYLQMNSLRAEDTAVYYCVRHGNFGNSYVSWFAYWGQGTLVTVSSASTKGPSVFPLAPSSKSTSGGTAALGCLVKDYFPEPVTVSWNSGALTSGVHTFPAVLQSSGLYSLSSVVTVPSSSLGTQTYICNVNHKPSNTKVDKKVEPKSCDKTHTCPPCPAPEAAGGPSVFLFPPKPKDTLMISRTPEVTCVVVDVSHEDPEVKFNWYVDGVEVHNAKTKPREEQYNSTYRVVSVLTVLHQDWLNGKEYKCKVSNKALGAPIEKTISKAKGQPREPQVYTLPPCREEMTKNQVSLWCLVKGFYPSDIAVEWESNGQPENNYKTTPPVLDSDGSFFLYSKLTVDKSRWQQGNVFSCSVMHEALHNHYTQKSLSLSPGK EVQLVETGGGLIQPGGSLRLSCAASGFPVSSNYMSWVRQAPGKGLEWVSVIFSGGRTYYADSVKGRFTISRDNSKNTLYLQMNSLRAEDTAVYYCARRNWIDGRDAFDIWGQGTMVTVSSASEPKSSDKTHTCPPCPAPEAAGGPSVFLFPPKPKDTLMISRTPEVTCVVVDVSHEDPEVKFNWYVDGVEVHNAKTKPREEQYNSTYRVVSVLTVLHQDWLNGKEYKCKVSNKALGAPIEKTISKAKGQPREPQVCTLPPSREEMTKNQVSLSCAVKGFYPSDIAVEWESNGQPENNYKTTPPVLDSDGSFFLVSKLTVDKSRWQQGNVFSCSVMHEALHNHYTQKSLSLSPGK
3240 | PR001991 (bispecific antibody, human IgG1, kappa, L234A L235A, CD3 Fab from PR000511, BCMA VH from PR000940; IgG1 knob/hole, AAG) chain 1: EVQLLESGGGLVQPGGSLRLSCAASGFTFNTYAMNWVRQAPGKGLEWVSRIRSKYNNYATYYADSVKDRFTISRDDSKSTLYLQMNSLRAEDTAVYYCVRHGNFGNSYVSWFAYWGQGTLVTVSSRTVAAPSVFIFPPSDEQLKSGTASVVCLLNNFYPREAKVQWKVDNALQSGNSQESVTEQDSKDSTYSLSSTLTLSKADYEKHKVYACEVTHQGLSSPVTKSFNRGEC chain 2: QAVVTQEPSLTVSPGGTVTLTCRSSTGAVTTSNYANWVQQKPGQAPRGLIGGTNKRAPWTPARFSGSLLGDKAALTLLGAQPEDEAEYFCALWYSNLWVFGGGTKLTVLSSASTKGPSVFPLAPSSKSTSGGTAALGCLVKDYFPEPVTVSWNSGALTSGVHTFPAVLQSSGLYSLSSVVTVPSSSLGTQTYICNVNHKPSNTKVDKKVEPKSCDKTHTCPPCPAPEAAGGPSVFLFPPKPKDTLMISRTPEVTCVVVDVSHEDPEVKFNWYVDGVEVHNAKTKPREEQYNSTYRVVSVLTVLHQDWLNGKEYKCKVSNKALGAPIEKTISKAKGQPREPQVYTLPPCREEMTKNQVSLWCLVKGFYPSDIAVEWESNGQPENNYKTTPPVLDSDGSFFLYSKLTVDKSRWQQGNVFSCSVMHEALHNHYTQKSLSLSPGK chain 3: EVQLLESGGGLVQPGGSLRLSCAASGFTFSSYAMIWVRQAPGKGLEWVSGISESGGSTYYADSVKGRFTISRDNSKNTLYLQMNSLRAEDTAVYFCVKDLDDILTGYYKDYWGQGTLVTVSSASEPKSSDKTHTCPPCPAPEAAGGPSVFLFPPKPKDTLMISRTPEVTCVVVDVSHEDPEVKFNWYVDGVEVHNAKTKPREEQYNSTYRVVSVLTVLHQDWLNGKEYKCKVSNKALGAPIEKTISKAKGQPREPQVCTLPPSREEMTKNQVSLSCAVKGFYPSDIAVEWESNGQPENNYKTTPPVLDSDGSFFLVSKLTVDKSRWQQGNVFSCSVMHEALHNHYTQKSLSLSPGK
6680 | PR001989 (bispecific antibody, human IgG1, lambda, L234A L235A, Structure 11 (Fab-Fc-VH): CD3 Fab from PR000511, BCMA VH from PR001035; human IgG1 knob/hole, AAG) light: QAVVTQEPSLTVSPGGTVTLTCRSSTGAVTTSNYANWVQQKPGQAPRGLIGGTNKRAPWTPARFSGSLLGDKAALTLLGAQPEDEAEYFCALWYSNLWVFGGGTKLTVLGQPKAAPSVTLFPPSSEELQANKATLVCLISDFYPGAVTVAWKADSSPVKAGVETTTPSKQSNNKYAASSYLSLTPEQWKSHRSYSCQVTHEGSTVEKTVAPTECS heavy: EVQLLESGGGLVQPGGSLRLSCAASGFTFNTYAMNWVRQAPGKGLEWVSRIRSKYNNYATYYADSVKDRFTISRDDSKSTLYLQMNSLRAEDTAVYYCVRHGNFGNSYVSWFAYWGQGTLVTVSSASTKGPSVFPLAPSSKSTSGGTAALGCLVKDYFPEPVTVSWNSGALTSGVHTFPAVLQSSGLYSLSSVVTVPSSSLGTQTYICNVNHKPSNTKVDKKVEPKSCDKTHTCPPCPAPEAAGGPSVFLFPPKPKDTLMISRTPEVTCVVVDVSHEDPEVKFNWYVDGVEVHNAKTKPREEQYNSTYRVVSVLTVLHQDWLNGKEYKCKVSNKALGAPIEKTISKAKGQPREPQVYTLPPCREEMTKNQVSLWCLVKGFYPSDIAVEWESNGQPENNYKTTPPVLDSDGSFFLYSKLTVDKSRWQQGNVFSCSVMHEALHNHYTQKSLSLSPGK EVQLVETGGGLIQPGGSLRLSCAASGFTVSSNYMTWVRQAPGKGLEWVSVIFSGGSTYYADSVKGRFTISRDNSKNTLYLQMNSLRAEDTAVYYCARRIAVAGHDVFDIWGQGTMVTVSSASEPKSSDKTHTCPPCPAPEAAGGPSVFLFPPKPKDTLMISRTPEVTCVVVDVSHEDPEVKFNWYVDGVEVHNAKTKPREEQYNSTYRVVSVLTVLHQDWLNGKEYKCKVSNKALGAPIEKTISKAKGQPREPQVCTLPPSREEMTKNQVSLSCAVKGFYPSDIAVEWESNGQPENNYKTTPPVLDSDGSFFLVSKLTVDKSRWQQGNVFSCSVMHEALHNHYTQKSLSLSPGK
2240 | PR001992 (bispecific antibody, human IgG1, kappa, L234A L235A, Structure 12 (Fab(cross VH/VL)-Fc-VH): CD3 Fab from PR000511, BCMA VH from PR000943; IgG1 knob/hole, AAG) chain 1: EVQLLESGGGLVQPGGSLRLSCAASGFTFNTYAMNWVRQAPGKGLEWVSRIRSKYNNYATYYADSVKDRFTISRDDSKSTLYLQMNSLRAEDTAVYYCVRHGNFGNSYVSWFAYWGQGTLVTVSSRTVAAPSVFIFPPSDEQLKSGTASVVCLLNNFYPREAKVQWKVDNALQSGNSQESVTEQDSKDSTYSLSSTLTLSKADYEKHKVYACEVTHQGLSSPVTKSFNRGEC chain 2: QAVVTQEPSLTVSPGGTVTLTCRSSTGAVTTSNYANWVQQKPGQAPRGLIGGTNKRAPWTPARFSGSLLGDKAALTLLGAQPEDEAEYFCALWYSNLWVFGGGTKLTVLSSASTKGPSVFPLAPSSKSTSGGTAALGCLVKDYFPEPVTVSWNSGALTSGVHTFPAVLQSSGLYSLSSVVTVPSSSLGTQTYICNVNHKPSNTKVDKKVEPKSCDKTHTCPPCPAPEAAGGPSVFLFPPKPKDTLMISRTPEVTCVVVDVSHEDPEVKFNWYVDGVEVHNAKTKPREEQYNSTYRVVSVLTVLHQDWLNGKEYKCKVSNKALGAPIEKTISKAKGQPREPQVYTLPPCREEMTKNQVSLWCLVKGFYPSDIAVEWESNGQPENNYKTTPPVLDSDGSFFLYSKLTVDKSRWQQGNVFSCSVMHEALHNHYTQKSLSLSPGK chain 3: EVQLVETGGGLIQPGGSLRLSCAASGFPVSSNYMSWVRQAPGKGLEWVSVIFSGGRTYYADSVKGRFTISRDNSKNTLYLQMNSLRAEDTAVYYCARRNWIDGRDAFDIWGQGTMVTVSSASEPKSSDKTHTCPPCPAPEAAGGPSVFLFPPKPKDTLMISRTPEVTCVVVDVSHEDPEVKFNWYVDGVEVHNAKTKPREEQYNSTYRVVSVLTVLHQDWLNGKEYKCKVSNKALGAPIEKTISKAKGQPREPQVCTLPPSREEMTKNQVSLSCAVKGFYPSDIAVEWESNGQPENNYKTTPPVLDSDGSFFLVSKLTVDKSRWQQGNVFSCSVMHEALHNHYTQKSLSLSPGK
4780 | PR001993 (bispecific antibody, human IgG1, kappa, L234A L235A, Structure 12 (Fab(cross VH/VL)-Fc-VH): CD3 Fab from PR000511, BCMA VH from PR001035; IgG1 knob/hole, AAG) chain 1: EVQLLESGGGLVQPGGSLRLSCAASGFTFNTYAMNWVRQAPGKGLEWVSRIRSKYNNYATYYADSVKDRFTISRDDSKSTLYLQMNSLRAEDTAVYYCVRHGNFGNSYVSWFAYWGQGTLVTVSSRTVAAPSVFIFPPSDEQLKSGTASVVCLLNNFYPREAKVQWKVDNALQSGNSQESVTEQDSKDSTYSLSSTLTLSKADYEKHKVYACEVTHQGLSSPVTKSFNRGEC chain 2: QAVVTQEPSLTVSPGGTVTLTCRSSTGAVTTSNYANWVQQKPGQAPRGLIGGTNKRAPWTPARFSGSLLGDKAALTLLGAQPEDEAEYFCALWYSNLWVFGGGTKLTVLSSASTKGPSVFPLAPSSKSTSGGTAALGCLVKDYFPEPVTVSWNSGALTSGVHTFPAVLQSSGLYSLSSVVTVPSSSLGTQTYICNVNHKPSNTKVDKKVEPKSCDKTHTCPPCPAPEAAGGPSVFLFPPKPKDTLMISRTPEVTCVVVDVSHEDPEVKFNWYVDGVEVHNAKTKPREEQYNSTYRVVSVLTVLHQDWLNGKEYKCKVSNKALGAPIEKTISKAKGQPREPQVYTLPPCREEMTKNQVSLWCLVKGFYPSDIAVEWESNGQPENNYKTTPPVLDSDGSFFLYSKLTVDKSRWQQGNVFSCSVMHEALHNHYTQKSLSLSPGK chain 3: EVQLVETGGGLIQPGGSLRLSCAASGFTVSSNYMTWVRQAPGKGLEWVSVIFSGGSTYYADSVKGRFTISRDNSKNTLYLQMNSLRAEDTAVYYCARRIAVAGHDVFDIWGQGTMVTVSSASEPKSSDKTHTCPPCPAPEAAGGPSVFLFPPKPKDTLMISRTPEVTCVVVDVSHEDPEVKFNWYVDGVEVHNAKTKPREEQYNSTYRVVSVLTVLHQDWLNGKEYKCKVSNKALGAPIEKTISKAKGQPREPQVCTLPPSREEMTKNQVSLSCAVKGFYPSDIAVEWESNGQPENNYKTTPPVLDSDGSFFLVSKLTVDKSRWQQGNVFSCSVMHEALHNHYTQKSLSLSPGK
